Experimental data from PMC9482650, “Quantitative fragmentomics allow affinity mapping of interactomes” (Nature Communications, 2022).

Legend:
Assay in all cases: holdup assay
Design in all cases: key: below the threshold = too weak to quantify, mostly under pKd 3.1 to 4
[1] = biological target: AHNAK1, Q09666
[2] = biological target: T1, APBA1_2, Q02410
T1 sequence (Q02410 742-832, limits assumed, looked up): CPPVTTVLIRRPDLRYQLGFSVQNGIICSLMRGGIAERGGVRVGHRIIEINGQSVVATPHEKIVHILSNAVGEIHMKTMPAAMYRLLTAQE

[3] = biological target: DLG1_2, Q12959
Chain of DLG1_2, Q12959 (Q12959 314-412): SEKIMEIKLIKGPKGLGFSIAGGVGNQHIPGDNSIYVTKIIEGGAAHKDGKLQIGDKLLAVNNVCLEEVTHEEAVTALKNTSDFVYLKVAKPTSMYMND

[4] = biological target: T2, DLG3_3, Q92796
T2 sequence (Q92796 374-475, limits assumed, looked up): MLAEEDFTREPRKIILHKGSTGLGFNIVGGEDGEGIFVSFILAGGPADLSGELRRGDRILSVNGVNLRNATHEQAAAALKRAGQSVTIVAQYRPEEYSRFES

[5] = biological target: DLG4_2, P78352
Chain of DLG4_2, P78352 (P78352 155-259): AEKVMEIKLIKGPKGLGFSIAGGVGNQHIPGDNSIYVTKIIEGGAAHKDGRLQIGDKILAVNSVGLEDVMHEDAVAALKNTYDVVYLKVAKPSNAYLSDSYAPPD

[6] = biological target: FRMPD2_1, Q68DX3
Chain of FRMPD2_1, Q68DX3 (Q68DX3 770-861): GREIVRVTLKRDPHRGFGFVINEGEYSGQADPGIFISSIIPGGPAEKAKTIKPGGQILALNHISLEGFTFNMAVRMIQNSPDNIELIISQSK

[7] = biological target: FRMPD2_2, Q68DX3
Chain of FRMPD2_2, Q68DX3 (Q68DX3 944-1038): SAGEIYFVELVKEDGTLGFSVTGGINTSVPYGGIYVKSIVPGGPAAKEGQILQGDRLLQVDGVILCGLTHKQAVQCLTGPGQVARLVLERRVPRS

[8] = biological target: FRMPD4, Q14CM0
Chain of FRMPD4, Q14CM0 (Q14CM0 67-160): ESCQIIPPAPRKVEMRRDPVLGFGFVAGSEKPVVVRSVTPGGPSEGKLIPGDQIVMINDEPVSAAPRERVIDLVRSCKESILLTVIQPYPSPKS

[9] = biological target: GRID2IP_2, A4D2P6
Chain of GRID2IP_2, A4D2P6 (A4D2P6 272-370): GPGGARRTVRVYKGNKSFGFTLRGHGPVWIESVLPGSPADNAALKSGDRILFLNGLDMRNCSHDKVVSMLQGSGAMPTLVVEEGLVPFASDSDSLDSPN

[10] = biological target: T3, GRIP1_4, Q9Y3R0
T3 sequence (Q9Y3R0 467-571, limits assumed, looked up): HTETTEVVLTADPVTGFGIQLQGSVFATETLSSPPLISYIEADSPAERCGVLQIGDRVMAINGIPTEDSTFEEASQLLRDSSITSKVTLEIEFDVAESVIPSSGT

[11] = biological target: T4, GRIP1_7, Q9Y3R0
T4 sequence (Q9Y3R0 999-1096, limits assumed, looked up): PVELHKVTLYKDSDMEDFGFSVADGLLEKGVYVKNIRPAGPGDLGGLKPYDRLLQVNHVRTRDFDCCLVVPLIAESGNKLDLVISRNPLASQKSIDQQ

[12] = biological target: GRIP2_7, Q9C0E4
Chain of GRIP2_7, Q9C0E4 (Q9C0E4 934-1023): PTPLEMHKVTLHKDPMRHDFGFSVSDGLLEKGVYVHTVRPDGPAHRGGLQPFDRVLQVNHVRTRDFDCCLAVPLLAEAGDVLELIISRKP

[13] = biological target: LIMK2, P53671
Chain of LIMK2, P53671 (P53671 143-248): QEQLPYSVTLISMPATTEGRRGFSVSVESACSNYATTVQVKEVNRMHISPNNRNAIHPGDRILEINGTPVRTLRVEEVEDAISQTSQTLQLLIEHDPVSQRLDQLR

[14] = biological target: T5, LIN7B, Q9HAP6
T5 sequence (Q9HAP6 88-185, limits assumed, looked up): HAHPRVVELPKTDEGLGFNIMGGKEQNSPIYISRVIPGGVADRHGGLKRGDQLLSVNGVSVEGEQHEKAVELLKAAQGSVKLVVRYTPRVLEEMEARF

[15] = biological target: LNX1_3, Q8TBB1
Chain of LNX1_3, Q8TBB1 (Q8TBB1 500-596): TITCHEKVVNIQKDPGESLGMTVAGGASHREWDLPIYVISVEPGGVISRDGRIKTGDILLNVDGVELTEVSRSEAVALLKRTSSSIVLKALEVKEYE

[16] = biological target: MAGI2_4, Q86UL8
Chain of MAGI2_4, Q86UL8 (Q86UL8 772-865): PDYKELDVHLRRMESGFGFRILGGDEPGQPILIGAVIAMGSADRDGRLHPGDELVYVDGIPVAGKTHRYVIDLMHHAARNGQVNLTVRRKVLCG

[17] = biological target: MAGI2_6, Q86UL8
Chain of MAGI2_6, Q86UL8 (Q86UL8 1141-1229): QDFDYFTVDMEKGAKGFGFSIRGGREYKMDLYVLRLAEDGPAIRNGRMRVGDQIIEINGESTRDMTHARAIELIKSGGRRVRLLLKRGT

[18] = biological target: T6, MPDZ_12, O75970
T6 sequence (O75970 1857-1958, limits assumed, looked up): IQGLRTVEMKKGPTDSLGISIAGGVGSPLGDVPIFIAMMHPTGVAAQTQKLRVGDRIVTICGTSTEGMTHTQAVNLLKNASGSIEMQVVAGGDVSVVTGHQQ

[19] = biological target: T7, MPP2, Q14168
T7 sequence (Q14168 180-250, limits assumed, looked up): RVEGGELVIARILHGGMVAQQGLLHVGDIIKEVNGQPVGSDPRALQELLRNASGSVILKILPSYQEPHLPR

[20] = biological target: T8, NHERF3_4, Q5T2W1
T8 sequence (Q5T2W1 373-468, limits assumed, looked up): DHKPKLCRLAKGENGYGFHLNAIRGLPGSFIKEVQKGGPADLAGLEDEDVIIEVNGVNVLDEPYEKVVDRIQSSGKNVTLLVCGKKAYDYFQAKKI

[21] = biological target: NHERF4_2, Q86UT5
Chain of NHERF4_2, Q86UT5 (Q86UT5 220-308): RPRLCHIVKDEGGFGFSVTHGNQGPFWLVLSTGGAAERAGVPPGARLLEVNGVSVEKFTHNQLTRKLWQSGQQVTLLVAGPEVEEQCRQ

[22] = biological target: NOS1, P29475
Chain of NOS1, P29475 (P29475 9-101): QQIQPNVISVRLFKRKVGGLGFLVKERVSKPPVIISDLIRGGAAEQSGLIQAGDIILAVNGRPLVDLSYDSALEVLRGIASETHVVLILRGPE

[23] = biological target: PARD3_3, Q8TEW0
Chain of PARD3_3, Q8TEW0 (Q8TEW0 582-685): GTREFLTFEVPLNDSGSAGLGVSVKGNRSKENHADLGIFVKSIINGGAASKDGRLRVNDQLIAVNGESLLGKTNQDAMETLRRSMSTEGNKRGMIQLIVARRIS

[24] = biological target: T9, PDZD2_2, O15018
T9 sequence (O15018 329-429, limits assumed, looked up): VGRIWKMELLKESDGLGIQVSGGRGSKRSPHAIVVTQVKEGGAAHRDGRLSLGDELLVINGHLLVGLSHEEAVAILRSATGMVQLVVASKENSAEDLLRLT

[25] = biological target: T10, PTPN13_1, Q12923
T10 sequence (Q12923 1088-1188, limits assumed, looked up): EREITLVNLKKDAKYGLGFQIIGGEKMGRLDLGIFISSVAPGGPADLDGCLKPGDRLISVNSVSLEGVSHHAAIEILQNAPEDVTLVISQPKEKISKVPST

[26] = biological target: SCRIB_3, Q14160
Chain of SCRIB_3, Q14160 (Q14160 999-1103): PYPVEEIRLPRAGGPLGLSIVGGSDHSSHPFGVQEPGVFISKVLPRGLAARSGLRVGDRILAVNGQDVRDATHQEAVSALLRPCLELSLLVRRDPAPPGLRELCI

[27] = biological target: T11, SNTG2, Q9NY99
T11 sequence (Q9NY99 68-166, limits assumed, looked up): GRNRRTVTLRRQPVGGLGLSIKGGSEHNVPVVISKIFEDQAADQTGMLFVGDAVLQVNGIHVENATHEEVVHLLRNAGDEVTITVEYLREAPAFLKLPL

[28] = plain residues with an end cap or a label only (N-terminal biotin on a linker: ttds)
[29] = plain residues with an end cap or a label only (N-terminal biotin on a linker: ado-ado)

Chain of AHNAK1, Q09666 (Q09666 4-100): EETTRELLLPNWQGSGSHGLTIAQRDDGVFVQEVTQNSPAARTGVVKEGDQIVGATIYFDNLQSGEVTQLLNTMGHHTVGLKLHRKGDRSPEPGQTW

Binder: LDSQIQETSI [MAP4, P27816]
- pKd [1, 28]: below the threshold
- pKd [2, 28]: below the threshold
- pKd [3, 28]: 4.37
- pKd [4, 28]: 3.78
- pKd [5, 28]: 4.18
- pKd [6, 28]: below the threshold
- pKd [7, 28]: 3.8
- pKd [8, 28]: below the threshold
- pKd [9, 28]: 4.29
- pKd [10, 28]: below the threshold
- pKd [11, 28]: below the threshold
- pKd [12, 28]: below the threshold
- pKd [13, 28]: below the threshold
- pKd [14, 28]: below the threshold
- pKd [15, 28]: below the threshold
- pKd [16, 28]: below the threshold
- pKd [17, 28]: 4.05
- pKd [18, 28]: below the threshold
- pKd [19, 28]: below the threshold
- pKd [20, 28]: below the threshold
- pKd [21, 28]: below the threshold
- pKd [22, 28]: 3.55
- pKd [23, 28]: 3.86
- pKd [24, 28]: 4.36
- pKd [25, 28]: below the threshold
- pKd [26, 28]: 5.17
- pKd [27, 28]: 5.22

Binder: TEEEVQDTRL [CFTR, P13569]
- pKd [1, 28]: below the threshold
- pKd [2, 28]: below the threshold
- pKd [3, 28]: below the threshold
- pKd [4, 28]: below the threshold
- pKd [5, 28]: below the threshold
- pKd [6, 28]: below the threshold
- pKd [7, 28]: below the threshold
- pKd [8, 28]: 4.66
- pKd [9, 28]: below the threshold
- pKd [10, 28]: below the threshold
- pKd [11, 28]: 3.74
- pKd [12, 28]: below the threshold
- pKd [13, 28]: below the threshold
- pKd [14, 28]: below the threshold
- pKd [15, 28]: below the threshold
- pKd [16, 28]: below the threshold
- pKd [17, 28]: below the threshold
- pKd [18, 28]: below the threshold
- pKd [19, 28]: below the threshold
- pKd [20, 28]: 4.08
- pKd [21, 28]: below the threshold
- pKd [22, 28]: 3.53
- pKd [23, 28]: 3.89
- pKd [24, 28]: below the threshold
- pKd [25, 28]: below the threshold
- pKd [26, 28]: below the threshold
- pKd [27, 28]: 4.37

Binder: NYWPGKETQL [SLCO1C1, Q9NYB5]
- pKd [1, 28]: below the threshold
- pKd [2, 28]: 4.08
- pKd [3, 28]: 5.37
- pKd [4, 28]: 4.25
- pKd [5, 28]: 4.78
- pKd [6, 28]: 4.05
- pKd [7, 28]: below the threshold
- pKd [8, 28]: 4.35
- pKd [9, 28]: 4.29
- pKd [10, 28]: below the threshold
- pKd [11, 28]: below the threshold
- pKd [12, 28]: below the threshold
- pKd [13, 28]: below the threshold
- pKd [14, 28]: 4.68
- pKd [15, 28]: below the threshold
- pKd [16, 28]: below the threshold
- pKd [17, 28]: 4.42
- pKd [18, 28]: below the threshold
- pKd [19, 28]: below the threshold
- pKd [20, 28]: below the threshold
- pKd [21, 28]: below the threshold
- pKd [22, 28]: 4.41
- pKd [23, 28]: below the threshold
- pKd [24, 28]: below the threshold
- pKd [25, 28]: below the threshold
- pKd [26, 28]: 5.6
- pKd [27, 28]: 5.28

Binder: EDLTKNHDEL [RCN1, Q15293]
- pKd [1, 29]: below the threshold
- pKd [2, 29]: 3.66
- pKd [3, 29]: below the threshold
- pKd [4, 29]: below the threshold
- pKd [5, 29]: 3.62
- pKd [6, 29]: below the threshold
- pKd [7, 29]: below the threshold
- pKd [8, 29]: 4.09
- pKd [9, 29]: 3.48
- pKd [10, 29]: below the threshold
- pKd [11, 29]: below the threshold
- pKd [12, 29]: 3.59
- pKd [13, 29]: below the threshold
- pKd [14, 29]: below the threshold
- pKd [15, 29]: 3.54
- pKd [16, 29]: 3.57
- pKd [17, 29]: 3.54
- pKd [18, 29]: below the threshold
- pKd [19, 29]: below the threshold
- pKd [20, 29]: below the threshold
- pKd [21, 29]: below the threshold
- pKd [22, 29]: 3.78
- pKd [23, 29]: below the threshold
- pKd [24, 29]: 3.62
- pKd [25, 29]: below the threshold
- pKd [26, 29]: 3.57
- pKd [27, 29]: below the threshold
